Earlier results as cited in publication PMC5123080.

Target: UNC5B ECD (Mus musculus) (UniProt Q8K1S3)
UniProt Q8K1S3, sequence (Q8K1S3 27-377): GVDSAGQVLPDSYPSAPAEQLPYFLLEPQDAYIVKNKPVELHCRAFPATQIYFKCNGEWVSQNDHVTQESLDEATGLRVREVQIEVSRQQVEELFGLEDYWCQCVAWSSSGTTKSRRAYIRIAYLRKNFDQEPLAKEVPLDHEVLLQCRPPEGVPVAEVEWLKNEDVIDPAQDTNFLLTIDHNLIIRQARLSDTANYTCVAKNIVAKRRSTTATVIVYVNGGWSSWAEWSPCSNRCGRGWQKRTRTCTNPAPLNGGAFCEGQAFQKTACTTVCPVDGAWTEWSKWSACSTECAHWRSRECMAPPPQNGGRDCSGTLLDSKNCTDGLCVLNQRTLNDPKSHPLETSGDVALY

- Kd: 12 nM
Substance: Robo4 ECD (from UniProt Q8C310)
